B1: M. tuberculosis sedoheptulose-7-phosphate isomerase (MtbGmhA), wild type (enzyme)
chain: MCTARTAEEIFVETIAVKTRILNDRVLLEAARAIGDRLIAGYRAGARVFMCGNGGSAADAQHFAAELTGHLIFDRPPLGAEALHANSSHLTAVANDYDYDTVFARALEGSARPGDTLFAISTSGNSMSVLRAAKTARELGVTVVAMTGESGGQLAEFADFLINVPSRDTGRIQESHIVFIHAISEHVEHALFAPRQ
notes: also called Rv0113; not shown: His6, N-terminal, kept
B2: M. tuberculosis GmhB enzyme (MtbGmhB) (enzyme)
chain: MVAERAGHQWCLFLDRDGVINRQVVGDYVRNWRQFEWLPGAARALKKLRAWAPYIVVVTNQQGVGAGLMSAVDVMVIHRHLQMQLASDGVLIDGFQVCPHHRSQRCGCRKPRPGLVLDWLGRHPDSEPLLSIVVGDSLSDLELAHNVAAAAGACASVQIGGASSGGVADASFDSLWEFAVAVGHARGERG

Series [1] deals with T1, M. tuberculosis HddA enzyme (MtbHddA) (M. tuberculosis, UniProt O53637 1-386).
T1 sequence: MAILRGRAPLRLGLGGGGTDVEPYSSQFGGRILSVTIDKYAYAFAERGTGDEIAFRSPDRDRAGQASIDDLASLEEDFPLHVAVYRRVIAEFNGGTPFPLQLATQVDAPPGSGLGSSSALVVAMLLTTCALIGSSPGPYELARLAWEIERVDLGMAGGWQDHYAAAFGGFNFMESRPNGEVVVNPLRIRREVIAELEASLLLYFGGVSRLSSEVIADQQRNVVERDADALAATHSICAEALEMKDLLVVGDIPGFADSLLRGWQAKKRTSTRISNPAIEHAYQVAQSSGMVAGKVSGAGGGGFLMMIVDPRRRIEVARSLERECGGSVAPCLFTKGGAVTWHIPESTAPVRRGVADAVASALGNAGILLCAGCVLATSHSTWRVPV
The series can be described thus: SPR; MtbGmhA immobilised (legend of Figure 4) on a gold surface activated by EDC-NHS; 25 °C; steady-state fit, Langmuir 1:1 model. The conditions noted are these: both partners purified. For orientation: In SPR one partner is held on a chip, and binding of the other changes the refractive index at the surface.

The series “SEC” concerns the molecule itself. Briefly: SEC. On the technique in general: Size exclusion chromatography separates by hydrodynamic size, large species first.
Series [2] deals with T1, M. tuberculosis HddA enzyme (MtbHddA). Briefly: SPR. The conditions noted are these: both partners purified.
In series [3] the target is B1. Briefly: SPR; MtbGmhA immobilised (legend of Figure 4) on a gold surface activated by EDC-NHS; 25 °C; steady-state fit, Langmuir 1:1 model. The conditions noted are these: both partners purified.

Usually Kd stands for the free concentration of one partner at which half of the binding sites on the other are occupied at equilibrium, for simple one-to-one binding. Lower therefore signals a tighter complex. In general, stoichiometry N refers to a count of units in the complex or per binding partner.

In series [1], B1 displayed a Kd of 8.45 ± 0.45 µM. Besides, the “stoichiometry N” value in the series “SEC” came to 4.

Regarding B2, the Kd in series [2] is 20 ± 0.95 µM; in series [3] it was 4.9 ± 0.11 µM.

The values are drawn from paper PMC7705670, “Structural and functional characterization of M. tuberculosis sedoheptulose- 7-phosphate isomerase, a critical enzyme involved in lipopolysaccharide biosynthetic pathway” (Scientific Reports, 2020).
